Test results taken from article PMC2975657.
Where “and” joins values, the source holds several entries; their conditions need not be identical. Identical values can stand only once.

Tests used:
[1] = biological target: protective antigen, proteolytically activated 63-kDa portion (PA63) (Bacillus anthracis); test: native MS
[2] = biological target: Lethal factor LFN (Bacillus anthracis) (UniProt P15917); conditions: cited from earlier work
[3] = biological target: protective antigen, proteolytically activated 63-kDa portion (PA63) (Bacillus anthracis); test: negative-stain electron microscopy
[4] = biological target: PA7(LFN)3 complex (heptameric PA oligomer with three LFN) (Bacillus anthracis)
[5] = biological target: PA8(LFN)4 complex (octameric PA oligomer with four LFN) (Bacillus anthracis)
[6] = biological target: PA7(LFN)3 complex (heptameric PA oligomer with three LFN) (Bacillus anthracis); test: native MS
[7] = biological target: PA8(LFN)4 complex (octameric PA oligomer with four LFN) (Bacillus anthracis); test: native MS

Q: With “LF's PA binding domain (LFN, the first 263 residues of LF) (domain or fragment)” as the substance, how does the stoichiometry N (LFN per PA2 intermediate) [1] read?
A: 1

Q: And the stoichiometry N (LFN per PA4 intermediate) [1]?
A: 2

Q: And the stoichiometry N (LFN per PA7 oligomer) [1]?
A: 3

Q: And the stoichiometry N (LFN per PA8 oligomer) [1]?
A: 4

Q: For “Protective antigen (from UniProt P13423)”, which Kd [2] is on record?
A: 1 nM

Q: Which results are given for “protective antigen, proteolytically activated 63-kDa portion (PA63) (domain or fragment)”?
A: stoichiometry N [1]: 4 and 2; stoichiometry N (PA63 per oligomer) [1]: 8 and 7; stoichiometry N (PA63 per oligomer) [3]: 7 and 8

Q: Which results are given for “soluble monomeric ANTXR2 extracellular domain (msANTXR2), capillary morphogenesis protein 2 residues 40-217 (from UniProt P58335 40-217) (receptor)”?
A: pH midpoint of the prechannel-to-channel transition, CD signal at 222 nm, 37°C [4]: 5.8 pH; pH midpoint of the prechannel-to-channel transition, CD signal at 222 nm, 37°C [5]: 5.8 pH; stoichiometry N (msANTXR2 per PA7(LFN)3 complex) [6]: 7; stoichiometry N (msANTXR2 per PA8(LFN)4 complex) [7]: 8
